Source: the supplement of paper PMC9170038

System: MS2 coat protein
Assay: apparent KD of MS2 coat protein; designed switch direction (-1 OFF switch, 1 ON switch): -1; higher = weaker reporter binding
How it was run: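 Stalled E. coli RNA polymerase transcribed designed RNA switches on Illumina chips, which were then titrated with SNAP-549-labelled MS2 coat protein, doubling from 0.7 or 1.5 nM to 3 µM. Steps lasted from 0.8–1.5 h at the lowest concentration to 10–20 min at the highest. The apparent KD is each design's median over clusters of curve-fitted normalised fluorescence.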

[1] = input ligand: microRNA oligo, concentration not stated
[2] = Eterna round: R95, input ligand: FMN 200 uM
[3] = Eterna round: R95, input ligand: microRNA oligo, concentration not stated
[4] = Eterna round: R95, input ligand: none

| Sequence | apparent KD of MS2 coat protein (input ligand: FMN 200 uM) [nM] | apparent KD of MS2 coat protein (input ligand: none) [nM] | apparent KD of MS2 coat protein [1] [nM] | apparent KD of MS2 coat protein [2] [nM] | apparent KD of MS2 coat protein [3] [nM] | apparent KD of MS2 coat protein [4] [nM] |
| --- | --- | --- | --- | --- | --- | --- |
| AAAUUCAGAGGAUAUGCGCAUAGAUAAGACUUUUUUUUUUAACAUGAGGAUCACCCAUGUAGAAGGCUGUAACA [Ex2 #50] (Eterna round: R97, puzzle: Exclusion 2) | 25.4 | 21.2 | – | – | – | – |
| AAAUUGUGAGGAUAUUCGUAGUACUCGGAGACGAGUAUUACGGAGAAGGCACAUGAGGAUCACCCAUGUUCCUU [Mat - Exclusion 4 - JL Mod - D20] (Eterna round: R97, puzzle: Exclusion 4) | 88.3 | 16.3 | – | – | – | – |
| AACAGGACAGGAUAUACAUGAGGAUCACCCAUGUAGGAAACAAGCAGAGUACCAAAAAGUAGAAGGGUCAUGGA [Ruby 30] (Eterna round: R96, puzzle: Exclusion 3) | – | – | 53.6 | – | – | – |
| AACAGUACAGGAUAUACAUGAGGAUCACCCAUGUGACAAUUAAGUGGCGUACCACAAAGUAGAAGGGUACUGGA [Ruby 86] (Eterna round: R96, puzzle: Exclusion 3) | 206 | 31 | 24.3 | – | – | – |
| AACAGUCUGGAGGAUAUGCUGGAUUAAAAUCUGGCAGAAGGCUGGACAUGAGGAUCACCCAUGUAAAUACUACC [Omei Ex6 A2a] (Eterna round: R97, puzzle: Exclusion 6) | 73.1 | 24.8 | – | – | – | – |
| AACAUGAGGAUCACCCAUGUAAUGGACAGAUCACCGACCACGCAGGAUAUUAGGCCUCAAAUUCUUAAGAAGGGCGAGGAUGUG [Eternabot solution 49] (Eterna round: R96, puzzle: Exclusion NG 3) | 50.3 | 66.9 | 52 | – | – | – |
| AACCGUCGUCAGGAUAUUUGCCAGGAUUCUAGCGAAGAAGGGACGACAUGAGGAUCACCCAUGUUGGCCACUCG [EX6 B.26] (Eterna round: R97, puzzle: Exclusion 6) | 188 | 36.9 | – | – | – | – |
| AACCUACAUGAGGAUCACCCAUGUGAGGAUAUAUUGGUAUUUAUAUUAUUUUUUAGAGGUAGAAGGCGCGUGAU [JR_Exc1_Sub021] (Eterna round: R97, puzzle: Exclusion 1) | 14.2 | 14.2 | – | – | – | – |
| AACCUGAGGCAUAGCUUUAGGUUUACAUGAGGAUCACCCAUGUAGGAUAUGGUAGGCAUAGCUUACCAGAAGGACAUGAAAAUU [Mat - Exclusion NG 3 - Mod of JL - D30] (Eterna round: R96, puzzle: Exclusion NG 3) | 417 | 55.6 | 47.9 | – | – | – |
| AACCUGAGGCUUUGCUUUAGGUGUACAUGAGGAUCACCCAUGUAGGAUAUGGUAGGCAAAGCUUACCAGAAGGACAUUUAGGUU [Mat - Exclusion NG 3 - Mod of JL - D43] (Eterna round: R96, puzzle: Exclusion NG 3) | 72.8 | 41.4 | 34.3 | – | – | – |
| AACCUGAGGCUUUGCUUUAGGUGUACAUGAGGAUCACCCAUGUAGGAUAUGGUAGGCUUUGCUUACCAGAAGGACAUUGGCGUU [JL ENG3 1.14] (Eterna round: R96, puzzle: Exclusion NG 3) | 388 | 97.3 | 66.2 | – | – | – |
| AACGAUACGCUCAUAAGAACAUGAGGAUCACCCAUGUGUGGUGAGGAUAUCCACCCAGAGGGAAAGGAGAAGGUACCAGUGGAC [Orsoenbere] (Eterna round: R96, puzzle: Exclusion NG 3) | 222 | 303 | 143 | – | – | – |
| AAGAAACAUGAGGAUCACCCAUGUGAGGAUAUGAAAAAGAAAAGAAAAGAAAGAAGAUUCAGAAGGCACAAAGG [salish99-ex1_r3_021] (puzzle: Exclusion 1) | – | – | – | 60.7 | 31.9 | 33.9 |
| AAGAAACAUGAGGAUCACCCAUGUGAGGAUAUGAACCGCCCGGCGUAAGCAAAAUAAAUCAGAAGGCACAAAGG [salish99_ex1_r4_006] (Eterna round: R97, puzzle: Exclusion 1) | 38.3 | 32.2 | – | – | – | – |
| AAGAAACAUGAGGAUCACCCAUGUGAGGAUAUGACAAAGAAAAGAAAAGAAAGAAGAAUCAGAAGGCACAAAGG [salish99-ex1_r3_033] (puzzle: Exclusion 1) | – | – | – | 121 | 83.1 | 96.6 |
| AAGAAACAUGAGGAUCACCCAUGUGAGGAUAUGAGGAAGAAAAGAAAAGAAAGAAGAUUCAGAAGGCACAAAGG [salish99-ex1_r3_058] (puzzle: Exclusion 1) | – | – | – | 96.3 | 35.1 | 59.1 |
| AAGAAACAUGAGGAUCACCCAUGUGAGGAUAUGUAAAAUAAAAGAAAAGAAAGAAGAAACAGAAGGCACAAAGG [Mat - Mod of Hog D13] (puzzle: Exclusion 1) | – | – | – | 47.3 | 35.4 | 47.5 |
| AAGAAGUGAGGAUAUGGCCGGGUCCCUGGGUUUGGACCCGGCCAGAAGGCACAUGAGGAUCACCCAUGUAAGAA [Excls4-X] (puzzle: Exclusion 4) | – | – | – | – | 21.1 | – |
| AAGAAUUUAUAGGAUAUCGAAAGUAUAAUUUAACGAGAAGGAUGAACAUGAGGAUCACCCAUGUGGUAUCAUGG [JL-ex6-3.09] (puzzle: Exclusion 6) | – | – | – | 145 | 232 | 304 |
| AAGAAUUUGCAGGAUAUCUACCACGAUAGGGAUAGAGAAGGGUAAACAUGAGGAUCACCCAUGUAGUAGGUCCG [Eternabot (L2) Solution 91] (Eterna round: R97, puzzle: Exclusion 6) | 61.3 | 115 | – | – | – | – |
| AAGACUCGCAAUAAGAACAAGCACUCCGAACUAUAAGUAACAUGAGGAUCACCCAUGUCAAGGGUGCCAAAGUCAAA [JR_Sensorv2_tov2_Sub302] (Eterna round: R96, puzzle: Sensor v2, turn-off variant 2) | 15.4 | 18.6 | 16 | – | – | – |
| AAGAGUGCAGGAUAUACUUGGUAGGGCGGGUGGAUGAAGUGACAUGAGGAUCACCCAUGUAGAAGGGCAGAGAG [JR_Exclu2_Sub055] (puzzle: Exclusion 2) | – | – | – | 24.6 | 21.4 | 25.7 |
| AAGAUGCGGGUAGGAUAUGGAGAGAAAGAAAGACCAGAAGGAUUGGUCACACAACAUGAGGAUCACCCAUGUGUGUGUUGCGAA [EX ng 1 6.1] (Eterna round: R96, puzzle: Exclusion NG 1) | – | – | 9.22 | – | – | – |
| AAGCAACAUGAGGAUCACCCAUGUGAGGAUAUACGCAUGCAUGCAUGCAUGCAUGCAAGUAGAAGGCACAAUAC [Design #16] (Eterna round: R97, puzzle: Exclusion 1) | 69.8 | 35.3 | – | – | – | – |
| AAGGACCGUGUAGGAUAUGCACUGAAUAGGUCAGGAGGGUUCUUACACAUGAGGAUCACCCAUGUGUAGAAGGACGGAAGGUCA [Eternabot solution 25] (Eterna round: R96, puzzle: Exclusion NG 2) | 12.7 | 15.2 | 11.4 | – | – | – |
| AAGGCGGUAGGAUAUACAUGAGGAUCACCCAUGUGUCGCAUAAUCACAGCAGUACUCUGUAGAAGGACCGUCAG [Eternabot (L2) Solution 100] (Eterna round: R97, puzzle: Exclusion 3) | 457 | 114 | – | – | – | – |
| AAGUACCGGUGAGGAUAUUUAUAAUAGAGCUUUAUGAUAUACAUGAGGAUCACCCAUGUUACUUUAAAGAAGGCAUCGGAUUAA [Mat - Exclusion NG 2 - Mod of JL - D92] (Eterna round: R96, puzzle: Exclusion NG 2) | 19.2 | 18.1 | 11.1 | – | – | – |
| AAGUACCGUCACGAUAGUGAUGGUACAACUAGCAUGUAAACAUGAGGAUCACCCAUGUCCUCAAUUGCUCGUCUUAU [Sensor 3 - 69] (puzzle: Sensor v3, turn-off variant 2) | – | – | – | 740 | 829 | 814 |
| AAGUAGACAGUGAGGAUAUAGGUGGAAUGACCCAUUUAGAAGGUACAUGAGGAUCACCCAUGUGGGUAAUGUCG [Brourd's EX4 #27] (Eterna round: R97, puzzle: Brourd's mod of Exclusion 4) | 146 | 149 | – | – | – | – |
| AAGUAGUCUGUGAGGAUAUUGGUGGAAUGACACAUUAAGAAGGUACAUGAGGAUCACCCAUGUGGGUAAAGACG [Brourd's EX4 #24] (Eterna round: R97, puzzle: Brourd's mod of Exclusion 4) | 115 | 109 | – | – | – | – |
